Results: patent publication US20240124539A1 (NEW YORK UNIVERSITY, published 2024)
Positions of bridges follow the written chain, without caps; N, C: chain ends. Non-standard residues stand in square brackets, D forms with d. Primed or numbered codes have the meaning given here. Chains are numbered I, II in the order given. *: point of attachment. dibenzylether crosslinker″ = crosslinker alkylating both cysteine thiols, drawn in Scheme 1 and; dibenzylether crosslinker = scaffold alkylating both cysteine thiols (drawn in Scheme 1 and; dibenzylether crosslinker(3) = scaffold alkylating both cysteine thiols (Scheme 1; FITC = O=C1OC2(c3ccc(O)cc3Oc3cc(O)ccc32)c2ccc(NC(=S)*)cc21; FITC′ = fluorescein isothiocyanate, linked via thiourea; βAla = NCCC(=O)O

B1: FITC-CHD^Sos-2 (designed binder)
chain 1: Ac-WIGRLCTEILRLRNGN-NH2
chain 2: {FITC′}-A[βAla]LAWRLRELERELARLC-NH2
modifications: linker I:6-II:18 via dibenzylether crosslinker; not fully specified
notes: Crosslinked helix dimer; form used in the fluorescence polarization assay; also called CHC^Sos-2 (fluorescein-derivatized); CHD-2
B2: FITC-CHD^Sos-6 (designed binder)
chain 1: Ac-WIGRLCTEIRRLRNGN-NH2
chain 2: {FITC}-A[βAla]LAWRLRELERELARLC-NH2
modifications: linker I:6-II:18 via dibenzylether crosslinker″; not fully specified
notes: Crosslinked helix dimer; form used in the fluorescence polarization assay; also called CHC^Sos-6 (fluorescein-derivatized)
B3: FITC-CHD^Sos-4 (designed binder)
chain 1: Ac-WIGRLCTEILRLRNGN-NH2
chain 2: {FITC′}-A[βAla]LAWALRELERELARLC-NH2
modifications: linker I:6-II:18 via dibenzylether crosslinker; not fully specified
notes: Crosslinked helix dimer; form used in the fluorescence polarization assay; also called CHC^Sos-4 (fluorescein-derivatized); CHD-4
B4: CHD^Sos-3 (designed binder)
chain 1: Ac-AIGRLCTEILRLRNGA-NH2
chain 2: Ac-LAWRLRELERELARLC-NH2
modifications: linker I:6-II:16 via dibenzylether crosslinker(3)
notes: also called CHC^Sos-3; CHD-3

What was measured:
[1] = molecular target: T1, wild-type His6-tagged H-Ras (1-166) pre-loaded with GDP (UniProt P01112 1-166); test: fluorescence polarization, fluorescein-labelled CHD, His6-H-Ras-GDP titrated
T1 construct: range 1-166; also called His6-H-Ras-GDP; not shown: N-terminal His6 tag with TEV site from the pProEx HTb vector

[2] = molecular target: T1, wild-type His6-tagged H-Ras (1-166) …; test: fluorescence polarization, fluorescein-labelled CHD (15 nM), His6-H-Ras-GDP titrated
Procedure: (§1) The generated binding affinity (KD) values for each compound are from biological triplicate studies and were determined via fitting to a sigmoidal dose-response nonlinear regression model on Graphpad Prism 6.

[3] = molecular target: T1, wild-type His6-tagged H-Ras (1-166) …; test: direct fluorescence polarization; fluorescein-labelled CHD titrated with GDP-loaded WT H-Ras
Procedure: as §1

[4] = molecular target: T2, fluorescently-labeled wild-type H-Ras-GDP (MST) (UniProt P01112 1-166, cysteine-reactive dye (Monolith RED-MALEIMIDE 2nd Generation or AFDye 647 maleimide) on cysteine, degree of label 0.43); test: microscale thermophoresis (column MST of the drawn table); fluorescently labelled wild-type H-Ras-GDP with serial dilutions of the unlabelled CHD
T2 construct: range 1-166; also called fluorescently-labeled Ras; wild-type H-Ras labeled with AFDye 647; not shown: N-terminal His6 tag from pProEx HTb

Row | Binder | fold enhancement in binding affinity over CHC^Sos-1 [1] [fold] | Kd [2] [µM] | Kd [3] [µM] | fold reduction in affinity against CHC^Sos-5 [1] [fold] | Kd [4] [µM]
1 | B1 | 10 | 2.8 | 2.79 | – | –
2 | B2 | – | 8.6 | – | 4 | –
3 | B3 | – | 40 | 40.4 | – | –
4 | B4 | – | – | – | – | > 10
